Test results published in patent US20200262877A1, “ION CHANNEL-BINDING PEPTIDES AND METHODS OF USE THEREOF” (priority 2017, published 2020).

How the values were obtained:
[1] = target: T1, TRPA1 (Homo sapiens, UniProt O75762); assay: Ion channel panel (IonWorks Barracuda): TRPA1; type: cell-based; details: 100% = no change, <100% = inhibition
T1 construct: host or cells: HEK293 or CHO
In short: (§1)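 Peptides were tested in duplicate at final 20 μM and 200 nM, with concentration set by amino acid analysis, in HEPES-buffered saline. They were applied for at least 5 min to HEK293 or CHO cells transfected with each channel. Currents were expressed as % inhibition, 1-(Ipeptide/Icontrol)×100, or % activation, Ipeptide/Icontrol×100, against a channel-matched reference compound.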

[2] = target: T2, NR2B (Homo sapiens, UniProt Q13224); assay: Ion channel panel (IonWorks Barracuda): NR2B; type: cell-based; details: 100% = no change, <100% = inhibition
T2 construct: host or cells: HEK293 or CHO
In short: as §1

[3] = target: Nav1.5 (Homo sapiens, UniProt Q14524); assay: in vitro; details: 100% = no change; for Activity of Nav1.5 with peptide, expressed as a percentage of the reference compound: peptide at 0.2 μM; for Activity of Nav1.5 with peptide (percentage of the reference compound): peptide at 20 μM
In short: as §1

[4] = target: hERG (Homo sapiens, UniProt Q12809); assay: in vitro; details: 100% = no change, <100% = inhibition
In short: as §1

[5] = tested on: GABA; assay: Ion channel panel (IonWorks Barracuda): GABA; type: cell-based; details: 100% = no change, <100% = inhibition
In short: as §1

[6] = target: T3, α4β2 (Homo sapiens, UniProt P17787+P43681); assay: Ion channel panel (IonWorks Barracuda): α4β2; type: cell-based; details: 100% = no change, <100% = inhibition
T3 construct: host or cells: HEK293 or CHO
In short: as §1

[7] = target: T4, NR2A (Homo sapiens, UniProt Q12879); assay: Ion channel panel (IonWorks Barracuda): NR2A; type: cell-based; details: 100% = no change, <100% = inhibition
T4 construct: host or cells: HEK293 or CHO
In short: as §1

[8] = target: T5, TRPV1 (Homo sapiens, UniProt Q8NER1); assay: Ion channel panel (IonWorks Barracuda): TRPV1; type: cell-based; details: 100% = no change, <100% = inhibition
T5 construct: host or cells: HEK293 or CHO
In short: as §1

[9] = target: T6, Nav1.7 (Homo sapiens, UniProt Q15858); assay: cell-based; type: cell-based; details: 100% = no change; for Activity of Nav1.7 with peptide, expressed as a percentage of the reference compound: peptide at 0.2 μM; for Activity of Nav1.7 with peptide (percentage of the reference compound): peptide at 20 μM
T6 construct: host or cells: HEK293 or CHO

[10] = target: T7, Kir2.1 (Homo sapiens, UniProt P63252); assay: Ion channel panel (IonWorks Barracuda): Kir2.1; type: cell-based; details: 100% = no change, <100% = inhibition
T7 construct: host or cells: HEK293 or CHO
In short: as §1

[11] = target: T8, α3β4 (Homo sapiens, UniProt P30926+P32297); assay: Ion channel panel (IonWorks Barracuda): α3β4; type: cell-based; details: 100% = no change, <100% = inhibition
T8 construct: host or cells: HEK293 or CHO
In short: as §1

[12] = target: T9, Cav2.1 (Homo sapiens, UniProt O00555); assay: cell-based; details: 100% = no change, <100% = inhibition
T9 construct: host or cells: HEK293 or CHO
In short: as §1

[13] = target: T10, Cav2.2 (Homo sapiens, UniProt Q00975); assay: cell-based; details: 100% = no change, <100% = inhibition
T10 construct: host or cells: HEK293 or CHO
In short: as §1

[14] = target: T11, Kv2.1 (Homo sapiens, UniProt Q14721); assay: cell-based; details: 100% = no change, <100% = inhibition
T11 construct: host or cells: HEK293 or CHO
In short: as §1

[15] = target: T12, Kv1.2 (Homo sapiens, UniProt P16389); assay: cell-based; type: cell-based; details: 100% = no change, <100% = inhibition
T12 construct: host or cells: HEK293 or CHO
In short: as §1

[16] = target: T13, Kv1.3 (Homo sapiens, UniProt P22001); assay: cell-based; type: cell-based; details: 100% = no change, <100% = inhibition
T13 construct: host or cells: HEK293 or CHO
In short: as §1

[17] = target: T14, Kv1.1 (Homo sapiens, UniProt Q09470); assay: cell-based; type: cell-based; details: 100% = no change, <100% = inhibition
T14 construct: host or cells: HEK293 or CHO
In short: as §1

[18] = target: T15, 5HT3a (Homo sapiens, UniProt P46098); assay: Ion channel panel (IonWorks Barracuda): 5HT3a; type: cell-based
T15 construct: host or cells: HEK293 or CHO
T15 sequence (P46098 whole entry, looked up): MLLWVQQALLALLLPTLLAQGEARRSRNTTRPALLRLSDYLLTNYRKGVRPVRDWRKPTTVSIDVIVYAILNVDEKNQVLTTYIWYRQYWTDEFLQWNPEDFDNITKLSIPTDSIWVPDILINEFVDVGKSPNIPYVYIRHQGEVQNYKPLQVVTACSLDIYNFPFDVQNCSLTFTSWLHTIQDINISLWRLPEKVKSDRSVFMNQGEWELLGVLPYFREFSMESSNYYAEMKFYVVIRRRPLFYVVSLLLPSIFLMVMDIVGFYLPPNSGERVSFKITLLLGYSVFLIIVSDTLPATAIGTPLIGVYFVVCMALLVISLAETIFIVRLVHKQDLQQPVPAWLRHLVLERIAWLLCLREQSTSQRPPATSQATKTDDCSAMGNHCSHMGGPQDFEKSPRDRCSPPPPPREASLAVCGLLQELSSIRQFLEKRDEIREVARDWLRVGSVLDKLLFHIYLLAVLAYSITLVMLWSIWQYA
In short: as §1

[19] = first of two Nav1.5 columns (probably TP1)
[20] = second of two Nav1.5 columns (probably TP2)
[21] = first of two Nav1.7 columns (probably TP1)
[22] = second of two Nav1.7 columns (probably TP2)

Nav1.5, sequence (Q14524 whole entry): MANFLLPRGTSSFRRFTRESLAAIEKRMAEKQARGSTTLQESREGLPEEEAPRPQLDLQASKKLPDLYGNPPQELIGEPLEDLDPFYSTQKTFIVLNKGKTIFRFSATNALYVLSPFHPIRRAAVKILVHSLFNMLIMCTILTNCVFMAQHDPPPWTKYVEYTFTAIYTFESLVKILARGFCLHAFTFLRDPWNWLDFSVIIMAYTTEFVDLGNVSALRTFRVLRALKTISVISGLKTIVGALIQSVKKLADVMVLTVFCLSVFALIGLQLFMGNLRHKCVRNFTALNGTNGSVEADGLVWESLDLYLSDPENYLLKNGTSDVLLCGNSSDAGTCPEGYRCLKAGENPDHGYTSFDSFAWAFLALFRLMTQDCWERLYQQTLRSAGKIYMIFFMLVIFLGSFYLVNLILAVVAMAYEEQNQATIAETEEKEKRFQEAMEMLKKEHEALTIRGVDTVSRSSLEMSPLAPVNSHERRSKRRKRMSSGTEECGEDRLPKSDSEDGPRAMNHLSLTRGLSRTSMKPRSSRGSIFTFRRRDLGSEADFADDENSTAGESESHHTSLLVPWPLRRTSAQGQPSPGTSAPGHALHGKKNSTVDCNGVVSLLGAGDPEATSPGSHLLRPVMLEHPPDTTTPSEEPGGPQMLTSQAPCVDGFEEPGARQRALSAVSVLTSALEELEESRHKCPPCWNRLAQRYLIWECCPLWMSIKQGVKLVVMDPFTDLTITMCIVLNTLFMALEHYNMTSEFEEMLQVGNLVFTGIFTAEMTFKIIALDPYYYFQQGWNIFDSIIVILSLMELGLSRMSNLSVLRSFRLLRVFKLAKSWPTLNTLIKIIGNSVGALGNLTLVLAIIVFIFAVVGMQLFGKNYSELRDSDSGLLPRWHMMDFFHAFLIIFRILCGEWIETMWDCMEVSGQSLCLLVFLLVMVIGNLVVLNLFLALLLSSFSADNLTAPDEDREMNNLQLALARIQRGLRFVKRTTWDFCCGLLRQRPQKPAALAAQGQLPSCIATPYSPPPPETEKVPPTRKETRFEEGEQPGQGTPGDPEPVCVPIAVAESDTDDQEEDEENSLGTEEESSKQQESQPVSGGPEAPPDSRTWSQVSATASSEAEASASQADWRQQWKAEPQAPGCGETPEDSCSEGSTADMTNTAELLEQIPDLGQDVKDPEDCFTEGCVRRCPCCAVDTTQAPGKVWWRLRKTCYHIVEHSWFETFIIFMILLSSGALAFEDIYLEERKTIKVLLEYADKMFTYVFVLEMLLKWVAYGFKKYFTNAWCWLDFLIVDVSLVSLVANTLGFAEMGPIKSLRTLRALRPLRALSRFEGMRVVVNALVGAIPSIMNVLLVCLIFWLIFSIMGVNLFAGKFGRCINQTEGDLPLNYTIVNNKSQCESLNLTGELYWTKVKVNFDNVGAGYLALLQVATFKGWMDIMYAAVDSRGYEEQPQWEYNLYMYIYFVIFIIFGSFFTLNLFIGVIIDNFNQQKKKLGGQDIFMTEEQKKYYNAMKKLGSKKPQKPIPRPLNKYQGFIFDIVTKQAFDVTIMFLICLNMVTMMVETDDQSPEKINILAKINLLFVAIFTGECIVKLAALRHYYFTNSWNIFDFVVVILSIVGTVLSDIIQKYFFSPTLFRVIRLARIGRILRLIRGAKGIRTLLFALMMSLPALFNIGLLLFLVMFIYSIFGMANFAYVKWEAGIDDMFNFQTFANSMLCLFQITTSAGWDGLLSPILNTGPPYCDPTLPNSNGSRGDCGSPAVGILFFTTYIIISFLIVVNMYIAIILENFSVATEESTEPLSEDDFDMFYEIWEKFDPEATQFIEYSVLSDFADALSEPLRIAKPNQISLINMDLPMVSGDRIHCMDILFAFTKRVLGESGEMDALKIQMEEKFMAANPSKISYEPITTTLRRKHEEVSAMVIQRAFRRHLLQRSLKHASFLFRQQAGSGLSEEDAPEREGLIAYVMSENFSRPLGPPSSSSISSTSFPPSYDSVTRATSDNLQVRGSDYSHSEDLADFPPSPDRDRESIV
T6 sequence (Q15858 whole entry): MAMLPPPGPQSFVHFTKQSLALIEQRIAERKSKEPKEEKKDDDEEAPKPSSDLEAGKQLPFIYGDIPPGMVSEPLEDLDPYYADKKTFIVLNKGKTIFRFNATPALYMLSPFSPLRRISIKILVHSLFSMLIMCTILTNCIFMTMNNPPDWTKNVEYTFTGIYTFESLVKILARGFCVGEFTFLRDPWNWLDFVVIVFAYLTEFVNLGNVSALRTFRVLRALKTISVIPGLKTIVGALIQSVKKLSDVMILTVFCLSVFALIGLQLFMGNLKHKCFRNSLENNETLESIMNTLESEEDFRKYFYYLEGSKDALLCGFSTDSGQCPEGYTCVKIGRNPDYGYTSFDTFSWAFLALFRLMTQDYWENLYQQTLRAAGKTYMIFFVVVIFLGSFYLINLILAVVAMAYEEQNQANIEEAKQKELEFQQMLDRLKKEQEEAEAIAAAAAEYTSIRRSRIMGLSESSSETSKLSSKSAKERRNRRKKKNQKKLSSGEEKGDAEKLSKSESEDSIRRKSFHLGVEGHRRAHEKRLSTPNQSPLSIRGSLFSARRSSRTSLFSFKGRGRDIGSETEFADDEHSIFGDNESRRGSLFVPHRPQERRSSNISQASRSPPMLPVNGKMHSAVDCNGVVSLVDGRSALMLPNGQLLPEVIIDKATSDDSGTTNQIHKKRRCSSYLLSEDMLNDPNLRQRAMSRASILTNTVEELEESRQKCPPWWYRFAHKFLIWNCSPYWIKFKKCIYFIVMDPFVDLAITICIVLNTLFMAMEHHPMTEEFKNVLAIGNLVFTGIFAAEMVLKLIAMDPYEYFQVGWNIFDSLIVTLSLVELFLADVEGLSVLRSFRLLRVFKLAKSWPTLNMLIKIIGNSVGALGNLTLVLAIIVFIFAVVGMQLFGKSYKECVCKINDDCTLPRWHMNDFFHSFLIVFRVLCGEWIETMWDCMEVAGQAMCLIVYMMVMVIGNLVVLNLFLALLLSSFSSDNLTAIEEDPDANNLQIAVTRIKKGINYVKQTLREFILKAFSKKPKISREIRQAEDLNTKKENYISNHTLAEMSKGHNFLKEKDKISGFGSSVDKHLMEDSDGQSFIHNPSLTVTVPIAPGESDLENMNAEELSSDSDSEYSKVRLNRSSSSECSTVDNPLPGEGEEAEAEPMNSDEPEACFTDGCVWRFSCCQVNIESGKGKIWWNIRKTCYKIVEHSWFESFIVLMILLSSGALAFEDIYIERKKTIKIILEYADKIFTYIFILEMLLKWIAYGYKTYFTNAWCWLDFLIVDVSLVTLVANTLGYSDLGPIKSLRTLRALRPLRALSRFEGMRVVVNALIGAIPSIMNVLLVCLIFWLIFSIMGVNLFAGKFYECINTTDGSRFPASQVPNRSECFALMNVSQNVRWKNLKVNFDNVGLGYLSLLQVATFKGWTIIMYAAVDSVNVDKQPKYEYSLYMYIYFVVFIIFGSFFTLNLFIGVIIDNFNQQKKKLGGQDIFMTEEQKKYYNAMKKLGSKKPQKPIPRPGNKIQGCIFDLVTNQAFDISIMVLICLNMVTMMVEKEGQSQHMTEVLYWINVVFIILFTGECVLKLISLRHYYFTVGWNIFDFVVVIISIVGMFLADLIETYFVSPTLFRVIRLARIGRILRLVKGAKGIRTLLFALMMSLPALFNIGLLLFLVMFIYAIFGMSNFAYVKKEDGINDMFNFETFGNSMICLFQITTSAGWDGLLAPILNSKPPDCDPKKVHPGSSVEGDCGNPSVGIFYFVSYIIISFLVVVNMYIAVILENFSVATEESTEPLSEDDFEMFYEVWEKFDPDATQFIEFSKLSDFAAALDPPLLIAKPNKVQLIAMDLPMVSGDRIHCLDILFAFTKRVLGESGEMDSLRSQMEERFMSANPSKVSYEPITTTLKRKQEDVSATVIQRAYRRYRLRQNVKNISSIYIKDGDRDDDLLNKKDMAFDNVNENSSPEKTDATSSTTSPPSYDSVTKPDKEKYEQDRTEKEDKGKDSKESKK
T5 sequence (Q8NER1 whole entry): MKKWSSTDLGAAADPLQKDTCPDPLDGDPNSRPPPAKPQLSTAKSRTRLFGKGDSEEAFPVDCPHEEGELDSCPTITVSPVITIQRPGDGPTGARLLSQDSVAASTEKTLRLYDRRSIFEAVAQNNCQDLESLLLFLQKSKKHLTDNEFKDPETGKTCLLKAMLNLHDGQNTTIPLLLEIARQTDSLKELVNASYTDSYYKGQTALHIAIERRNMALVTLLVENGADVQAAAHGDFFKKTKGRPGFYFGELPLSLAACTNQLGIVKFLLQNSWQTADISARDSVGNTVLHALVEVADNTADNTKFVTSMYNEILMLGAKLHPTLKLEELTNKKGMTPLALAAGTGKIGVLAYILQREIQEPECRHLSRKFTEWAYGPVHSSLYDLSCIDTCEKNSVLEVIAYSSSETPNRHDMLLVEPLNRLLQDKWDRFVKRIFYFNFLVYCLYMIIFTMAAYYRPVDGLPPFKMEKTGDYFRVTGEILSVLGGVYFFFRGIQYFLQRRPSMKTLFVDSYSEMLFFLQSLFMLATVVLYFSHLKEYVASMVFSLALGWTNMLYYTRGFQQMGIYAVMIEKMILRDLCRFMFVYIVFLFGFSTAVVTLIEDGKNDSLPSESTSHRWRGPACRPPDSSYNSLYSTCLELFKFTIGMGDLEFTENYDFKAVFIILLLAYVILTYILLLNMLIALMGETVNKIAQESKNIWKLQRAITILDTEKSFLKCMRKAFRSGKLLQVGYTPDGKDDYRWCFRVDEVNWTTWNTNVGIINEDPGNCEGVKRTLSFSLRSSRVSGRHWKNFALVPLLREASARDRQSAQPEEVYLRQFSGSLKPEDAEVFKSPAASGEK

27 (GSACQFWSCNSSCISRGYRQGYCWGIQYKYCQCQ) [compound 27]
Activity of TRPA1 with peptide, expressed as a percentage of the reference compound ([1]; peptide at 0.2 μM): 85% | Activity of TRPA1 with peptide (percentage of the reference compound) ([1]; peptide at 20 μM): 114% | Activity of NR2B with peptide, expressed as a percentage of the reference compound ([2]; peptide at 0.2 μM): 79% | Activity of NR2B with peptide (percentage of the reference compound) ([2]; peptide at 20 μM): 89% | Activity of Nav1.5 with peptide, expressed as a percentage of the reference compound [3, 19]: 94% | Activity of Nav1.5 with peptide, expressed as a percentage of the reference compound [3, 20]: 93% | Activity of Nav1.5 with peptide (percentage of the reference compound) [3, 19]: 104% | Activity of Nav1.5 with peptide (percentage of the reference compound) [3, 20]: 109% | Activity of hERG with peptide, expressed as a percentage of the reference compound ([4]; peptide at 0.2 μM): 90% | Activity of hERG with peptide (percentage of the reference compound) ([4]; peptide at 20 μM): 75% | Activity of GABA with peptide, expressed as a percentage of the reference compound ([5]; peptide at 0.2 μM): 112% | Activity of GABA with peptide (percentage of the reference compound) ([5]; peptide at 20 μM): 105% | Activity of a4b2 with peptide, expressed as a percentage of the reference compound ([6]; peptide at 0.2 μM): 90% | Activity of a4b2 with peptide (percentage of the reference compound) ([6]; peptide at 20 μM): 82% | Activity of NR2A with peptide, expressed as a percentage of the reference compound ([7]; peptide at 0.2 μM): 98% | Activity of NR2A with peptide (percentage of the reference compound) ([7]; peptide at 20 μM): 88% | Activity of TRPV1 with peptide, expressed as a percentage of the reference compound ([8]; peptide at 0.2 μM): 99% | Activity of TRPV1 with peptide (percentage of the reference compound) ([8]; peptide at 20 μM): 67% | Activity of Nav1.7 with peptide, expressed as a percentage of the reference compound [9, 21]: 104% | Activity of Nav1.7 with peptide, expressed as a percentage of the reference compound [9, 22]: 114% | Activity of Nav1.7 with peptide (percentage of the reference compound) [9, 21]: 97% | Activity of Nav1.7 with peptide (percentage of the reference compound) [9, 22]: 97% | Activity of Kir2.1 with peptide, expressed as a percentage of the reference compound ([10]; peptide at 0.2 μM): 101% | Activity of Kir2.1 with peptide (percentage of the reference compound) ([10]; peptide at 20 μM): 86% | Activity of a3b4 with peptide, expressed as a percentage of the reference compound ([11]; peptide at 0.2 μM): 98% | Activity of a3b4 with peptide (percentage of the reference compound) ([11]; peptide at 20 μM): 93% | Activity of Cav2.1 with peptide, expressed as a percentage of the reference compound ([12]; peptide at 0.2 μM): 108% | Activity of Cav2.1 with peptide (percentage of the reference compound) ([12]; peptide at 20 μM): 103% | Activity of Cav2.2 with peptide, expressed as a percentage of the reference compound ([13]; peptide at 0.2 μM): 105% | Activity of Cav2.2 with peptide (percentage of the reference compound) ([13]; peptide at 20 μM): 116% | Activity of Kv2.1 with peptide, expressed as a percentage of the reference compound ([14]; peptide at 0.2 μM): 91% | Activity of Kv2.1 with peptide (percentage of the reference compound) ([14]; peptide at 20 μM): 94% | Activity of Kv1.2 with peptide, expressed as a percentage of the reference compound ([15]; peptide at 0.2 μM): 84% | Activity of Kv1.2 with peptide (percentage of the reference compound) ([15]; peptide at 20 μM): 107% | Activity of Kv1.3 with peptide, expressed as a percentage of the reference compound ([16]; peptide at 0.2 μM): 106% | Activity of Kv1.3 with peptide (percentage of the reference compound) ([16]; peptide at 20 μM): 100% | Activity of Kv1.1 with peptide, expressed as a percentage of the reference compound ([17]; peptide at 0.2 μM): 81% | Activity of Kv1.1 with peptide (percentage of the reference compound) ([17]; peptide at 20 μM): 89% | Activity of 5HT3a with peptide (percentage of the reference compound) [18]: 78% | Activity of 5HT3a with peptide, expressed as a percentage of the reference compound [18]: 105%
